In patent US20110239319, “Use of Endonucleases for Inserting Transgenes Into Safe Harbor Loci” (published 2011) one finds activity data, which are given here for 10 molecules.

Holding throughout (test): cell_activity; endogenous locus, 293H
One series deals with T1, SCOH-SH52-b12-C (artificial).
T1 chain: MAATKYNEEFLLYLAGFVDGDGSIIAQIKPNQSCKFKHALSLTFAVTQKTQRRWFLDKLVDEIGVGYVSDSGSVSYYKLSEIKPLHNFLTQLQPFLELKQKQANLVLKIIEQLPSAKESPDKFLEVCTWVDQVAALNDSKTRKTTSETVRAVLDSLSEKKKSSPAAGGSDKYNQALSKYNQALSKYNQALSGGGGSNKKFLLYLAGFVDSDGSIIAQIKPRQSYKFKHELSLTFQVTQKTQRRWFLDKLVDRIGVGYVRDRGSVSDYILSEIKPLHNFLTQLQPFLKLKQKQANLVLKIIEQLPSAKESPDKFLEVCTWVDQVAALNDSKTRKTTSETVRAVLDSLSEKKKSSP
Here is the method:
(§1) Human embryonic kidney 293H cells (Invitrogen) were plated at a density of 1×10⁶ cells per 10 cm dish in complete medium (DMEM supplemented with 2 mM L-glutamine, penicillin (100 UI/ml), streptomycin (100 μg/ml), amphotericin B (Fongizone) (0.25 μg/ml) (Invitrogen-Life Science) and 10% FBS). The next day, cells were transfected with 3 μg of single-chain meganuclease expression vector using Lipofectamine 2000 transfection reagent (Invitrogen) according to the supplier's protocol. After 2 to 6 days of incubation at 37° C., cells were trypsinized and genomic DNA extraction was performed with the DNeasy blood and tissue kit (Qiagen) according to the supplier's protocol.
(§2) Human embryonic kidney 293H cells were transfected with a plasmid expressing a single-chain safe harbor meganuclease. After 2 to 6 days of incubation at 37° C., genomic DNA was isolated and PCR was used to amplify the genomic sequence surrounding the meganuclease target site. Sequences were then analyzed for the presence of insertions or deletions events (InDel) in the cleavage site of each safe harbor target.

The next series addresses T2, SCOH-SH42-b11-C (artificial).
T2 chain: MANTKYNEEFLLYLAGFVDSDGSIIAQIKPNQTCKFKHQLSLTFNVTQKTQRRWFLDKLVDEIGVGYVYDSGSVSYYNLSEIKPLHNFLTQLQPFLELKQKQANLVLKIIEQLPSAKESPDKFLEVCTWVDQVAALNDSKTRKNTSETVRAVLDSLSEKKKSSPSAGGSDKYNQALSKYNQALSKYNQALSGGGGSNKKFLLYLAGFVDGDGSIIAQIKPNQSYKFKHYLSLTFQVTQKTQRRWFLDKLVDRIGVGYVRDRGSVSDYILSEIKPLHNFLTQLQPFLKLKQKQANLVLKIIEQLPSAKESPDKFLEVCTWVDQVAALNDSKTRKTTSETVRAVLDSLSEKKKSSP
Here is the method:
as §1, §2

The next series addresses T3, SCOH-SH4-b1-C (artificial).
T3 chain: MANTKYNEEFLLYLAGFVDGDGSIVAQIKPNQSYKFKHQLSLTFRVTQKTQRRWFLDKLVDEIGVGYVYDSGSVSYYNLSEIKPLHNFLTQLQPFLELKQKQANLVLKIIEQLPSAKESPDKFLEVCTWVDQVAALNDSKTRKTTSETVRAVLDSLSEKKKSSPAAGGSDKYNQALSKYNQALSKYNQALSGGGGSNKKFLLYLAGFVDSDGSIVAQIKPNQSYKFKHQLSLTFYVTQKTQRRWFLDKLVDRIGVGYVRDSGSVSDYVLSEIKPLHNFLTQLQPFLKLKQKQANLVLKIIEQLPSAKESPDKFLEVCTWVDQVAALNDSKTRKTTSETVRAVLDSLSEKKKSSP
Here is the method:
as §1, §2

For another series, the target named is T4, SCOH-SH3-b1-C (artificial).
T4 chain: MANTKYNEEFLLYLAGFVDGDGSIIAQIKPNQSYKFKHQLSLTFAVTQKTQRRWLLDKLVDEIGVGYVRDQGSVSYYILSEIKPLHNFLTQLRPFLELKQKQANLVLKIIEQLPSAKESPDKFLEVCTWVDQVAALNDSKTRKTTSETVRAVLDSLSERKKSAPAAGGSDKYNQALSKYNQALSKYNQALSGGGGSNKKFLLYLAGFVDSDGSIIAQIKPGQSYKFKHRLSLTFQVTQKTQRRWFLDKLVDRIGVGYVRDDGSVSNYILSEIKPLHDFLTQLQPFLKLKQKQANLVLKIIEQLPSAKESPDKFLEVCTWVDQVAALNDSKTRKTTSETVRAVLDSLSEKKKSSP
Here is the method:
as §1, §2

The target in another series is T5, SCOH-SH39-b11-C (artificial).
T5 chain: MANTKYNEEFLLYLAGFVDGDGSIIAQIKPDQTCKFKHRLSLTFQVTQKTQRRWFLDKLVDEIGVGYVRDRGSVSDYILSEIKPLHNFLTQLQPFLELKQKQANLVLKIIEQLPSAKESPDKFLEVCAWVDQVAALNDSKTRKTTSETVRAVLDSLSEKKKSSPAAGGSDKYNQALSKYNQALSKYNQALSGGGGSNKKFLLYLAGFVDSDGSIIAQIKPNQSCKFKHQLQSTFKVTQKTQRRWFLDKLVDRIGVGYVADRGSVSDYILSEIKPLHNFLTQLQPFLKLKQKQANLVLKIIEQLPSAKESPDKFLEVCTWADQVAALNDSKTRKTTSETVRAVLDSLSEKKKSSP
Here is the method:
as §1, §2

The target in the next series is T6, SCOH-SH43-b12-C (artificial).
T6 chain: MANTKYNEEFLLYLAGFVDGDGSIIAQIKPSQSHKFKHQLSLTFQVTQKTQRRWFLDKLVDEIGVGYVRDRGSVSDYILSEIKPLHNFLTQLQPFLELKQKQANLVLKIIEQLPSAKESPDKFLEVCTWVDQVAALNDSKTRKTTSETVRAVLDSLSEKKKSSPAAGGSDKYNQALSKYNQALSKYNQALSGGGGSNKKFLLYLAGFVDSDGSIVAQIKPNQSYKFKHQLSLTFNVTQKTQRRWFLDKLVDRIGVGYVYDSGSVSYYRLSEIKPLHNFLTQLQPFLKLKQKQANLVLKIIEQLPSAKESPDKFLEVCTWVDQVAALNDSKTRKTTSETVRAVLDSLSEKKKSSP
How it is done: as §1, §2

Another series has as its target T7, SCOH-SH44-b11-C (artificial).
T7 chain: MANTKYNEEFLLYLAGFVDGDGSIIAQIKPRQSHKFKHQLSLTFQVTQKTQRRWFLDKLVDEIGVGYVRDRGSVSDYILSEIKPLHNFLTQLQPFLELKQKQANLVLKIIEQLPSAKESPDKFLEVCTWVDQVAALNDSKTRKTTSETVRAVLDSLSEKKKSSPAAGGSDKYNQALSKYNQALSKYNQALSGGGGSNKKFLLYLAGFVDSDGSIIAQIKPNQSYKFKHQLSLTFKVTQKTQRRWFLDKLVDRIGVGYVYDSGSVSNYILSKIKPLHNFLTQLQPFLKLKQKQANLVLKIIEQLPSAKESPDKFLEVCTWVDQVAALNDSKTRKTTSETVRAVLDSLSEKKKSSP
Here is the method: as §1, §2

For a further series, the target named is T8, SCOH-SH31.2 (artificial).
T8 chain: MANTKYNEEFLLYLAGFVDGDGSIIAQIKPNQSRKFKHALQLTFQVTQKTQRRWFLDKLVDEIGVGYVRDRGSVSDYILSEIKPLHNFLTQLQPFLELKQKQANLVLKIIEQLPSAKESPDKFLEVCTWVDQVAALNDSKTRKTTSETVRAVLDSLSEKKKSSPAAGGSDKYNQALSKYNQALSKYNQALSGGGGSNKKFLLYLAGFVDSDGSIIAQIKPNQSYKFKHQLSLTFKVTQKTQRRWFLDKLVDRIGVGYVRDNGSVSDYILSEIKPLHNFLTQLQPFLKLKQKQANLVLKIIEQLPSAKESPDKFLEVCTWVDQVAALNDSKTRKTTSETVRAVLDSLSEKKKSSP
Here is the method:
as §1, §2

Another series deals with T9, SCOH-SH19 (artificial).
T9 chain: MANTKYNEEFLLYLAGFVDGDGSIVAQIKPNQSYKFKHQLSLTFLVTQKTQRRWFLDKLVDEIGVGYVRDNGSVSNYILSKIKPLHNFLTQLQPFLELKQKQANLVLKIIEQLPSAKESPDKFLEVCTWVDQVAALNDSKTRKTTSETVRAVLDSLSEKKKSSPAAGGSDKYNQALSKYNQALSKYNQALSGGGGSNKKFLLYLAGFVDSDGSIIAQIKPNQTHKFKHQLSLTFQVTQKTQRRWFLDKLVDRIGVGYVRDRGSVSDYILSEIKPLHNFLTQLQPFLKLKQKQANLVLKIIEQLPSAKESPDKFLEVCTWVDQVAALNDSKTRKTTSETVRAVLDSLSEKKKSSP
How it is done:
as §1, §2

Another series has as its target T10, SCOH-SH41-b11-C (artificial).
T10 chain: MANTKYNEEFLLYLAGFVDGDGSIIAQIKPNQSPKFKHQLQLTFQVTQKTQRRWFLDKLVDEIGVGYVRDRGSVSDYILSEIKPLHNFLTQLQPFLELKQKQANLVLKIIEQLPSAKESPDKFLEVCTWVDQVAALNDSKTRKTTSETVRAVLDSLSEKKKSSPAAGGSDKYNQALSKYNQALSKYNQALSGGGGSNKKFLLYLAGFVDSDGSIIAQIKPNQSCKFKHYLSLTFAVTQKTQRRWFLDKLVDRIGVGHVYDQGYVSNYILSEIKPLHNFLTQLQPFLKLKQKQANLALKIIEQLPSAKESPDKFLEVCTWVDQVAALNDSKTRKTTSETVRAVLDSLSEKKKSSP
Here is the method: as §1, §2

B1: SH52 target (dsDNA)
DNA 1: CTCCACTGTCTTACCTAATCCAGC
DNA 2: GCTGGATTAGGTAAGACAGTGGAG
B1: the activity with SCOH-SH52-b12-C amounted to 3.2 % InDels.

B2: SH42 target (dsDNA)
DNA 1: TATATCCCATGTGAGACATGCAGT
DNA 2: ACTGCATGTCTCACATGGGATATA
Consider B2, for which the activity in the series with SCOH-SH42-b11-C came to 0.7 % InDels.

B3: SH4 target (dsDNA)
DNA 1: TTAAAACACTGTACACCATTTTGA
DNA 2: TCAAAATGGTGTACAGTGTTTTAA
Molecule B3 showed an activity with SCOH-SH4-b1-C of 0.2 % InDels.

B4: SH3 target (dsDNA)
DNA 1: CCAATACAAGGTACAAAGTCCTGA
DNA 2: TCAGGACTTTGTACCTTGTATTGG
In turn, B4 had an activity in the series with SCOH-SH3-b1-C of 0.8 % InDels.

B5: SH39 target (dsDNA)
DNA 1: TCCTTCTGTCTTAAGAGATTTATC
DNA 2: GATAAATCTCTTAAGACAGAAGGA
In the series with SCOH-SH39-b11-C, B5 returned an activity of 1.5 % InDels.

B6: SH43 target (dsDNA)
DNA 1: TAAATACGTCTTACATTATTTTGC
DNA 2: GCAAAATAATGTAAGACGTATTTA
As for B6, the activity with SCOH-SH43-b12-C was determined as 0.4 % InDels.

B7: SH44 target (dsDNA)
DNA 1: AAGAAATGTCTCACAGAATTTTAC
DNA 2: GTAAAATTCTGTGAGACATTTCTT
In the case of B7, in the series with SCOH-SH44-b11-C, the activity turned out to be 3.6 % InDels.

B8: SH31 target (dsDNA)
DNA 1: TTGTAATGTCTTACAAGGTTTTAA
DNA 2: TTAAAACCTTGTAAGACATTACAA
Take B8: the activity with SCOH-SH31.2 came to 5 % InDels.

B9: SH19 target (dsDNA)
DNA 1: GCAAAACATTGTAAGACATGCCAA
DNA 2: TTGGCATGTCTTACAATGTTTTGC
In the series with SCOH-SH19, B9 yielded an activity of 0.9 % InDels.

B10: SH41 target (dsDNA)
DNA 1: CCTCTCTTAGGTGAGACGGTACAT
DNA 2: ATGTACCGTCTCACCTAAGAGAGG
With B10, the activity with SCOH-SH41-b11-C is 0.4 % InDels.
